Our source for the Kd values is US20210017257A1 (XBIOTECH, published 2021).

To fix the notation:
B1: PA7.2-G3 Ab (antibody, human IgG3, kappa)
heavy: EVQLVESRGGLVQPGGSLRLSCAASGFTFSNYAMSWVRQAPGKGLEWVSTISGSDGGTYYADSVKGRFTISRDNSGNTVYLQMNSLREDDTAVYYCARVGLSAPVTFFDFWGQGTLVTVSSASTKGPSVFPLAPCSRSTSGGTAALGCLVKDYFPEPVTVSWNSGALTSGVHTFPAVLQSSGLYSLSSVVTVPSSSLGTQTYTCNVNHKPSNTKVDKRVELKTPLGDTTHTCPRCPEPKSCDTPPPCPRCPEPKSCDTPPPCPRCPEPKSCDTPPPCPRCPAPELLGGPSVFLFPPKPKDTLMISRTPEVTCVVVDVSHEDPEVQFKWYVDGVEVHNAKTKPREEQYNSTFRVVSVLTVLHQDWLNGKEYKCKVSNKALPAPIEKTISKTKGQPREPQVYTLPPSREEMTKNQVSLTCLVKGFYPSDIAVEWESSGQPENNYNTTPPMLDSDGSFFLYSKLTVDKSRWQQGNIFSCSVMHEALHNRFTQKSLSLSPGK
light: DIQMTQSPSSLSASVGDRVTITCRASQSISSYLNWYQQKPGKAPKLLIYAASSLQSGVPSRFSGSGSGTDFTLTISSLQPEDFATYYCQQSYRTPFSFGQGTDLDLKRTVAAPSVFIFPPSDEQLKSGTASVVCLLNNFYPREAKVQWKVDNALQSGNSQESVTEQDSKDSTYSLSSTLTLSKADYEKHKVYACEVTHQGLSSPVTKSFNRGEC
notes: Human IgG3
B2: PA32-G3 Ab (antibody, human IgG3, kappa)
heavy: EVQLVETGGGLAQPGGSLRLSCAASGFIFSDYYMDWVRQAPGKGPEWVASIKADGSETHYVDSVKGRFTISRDNAKNSLYLQMNSLRVEDTAVYYCGRDPGRRFDYWGQGTLVTVSSASTKGPSVFPLAPCSRSTSGGTAALGCLVKDYFPEPVTVSWNSGALTSGVHTFPAVLQSSGLYSLSSVVTVPSSSLGTQTYTCNVNHKPSNTKVDKRVELKTPLGDTTHTCPRCPEPKSCDTPPPCPRCPEPKSCDTPPPCPRCPEPKSCDTPPPCPRCPAPELLGGPSVFLFPPKPKDTLMISRTPEVTCVVVDVSHEDPEVQFKWYVDGVEVHNAKTKPREEQYNSTFRVVSVLTVLHQDWLNGKEYKCKVSNKALPAPIEKTISKTKGQPREPQVYTLPPSREEMTKNQVSLTCLVKGFYPSDIAVEWESSGQPENNYNTTPPMLDSDGSFFLYSKLTVDKSRWQQGNIFSCSVMHEALHNRFTQKSLSLSPGK
light: not shown
notes: Human IgG3
B3: PA15-G3 Ab (antibody, human IgG3, kappa)
heavy: EVQLVETGGGLVRPGGSLRLSCAASGLTFSTFAMNWVRQAPGKGLEWVSSISGSGGSTYYADSVKGRFTISRDNAKNTVYLQMNSLRAEDTAVYYCARDFNWDSGTMDLWGQGTTVTVSPASTKGPSVFPLAPCSRSTSGGTAALGCLVKDYFPEPVTVSWNSGALTSGVHTFPAVLQSSGLYSLSSVVTVPSSSLGTQTYTCNVNHKPSNTKVDKRVELKTPLGDTTHTCPRCPEPKSCDTPPPCPRCPEPKSCDTPPPCPRCPEPKSCDTPPPCPRCPAPELLGGPSVFLFPPKPKDTLMISRTPEVTCVVVDVSHEDPEVQFKWYVDGVEVHNAKTKPREEQYNSTFRVVSVLTVLHQDWLNGKEYKCKVSNKALPAPIEKTISKTKGQPREPQVYTLPPSREEMTKNQVSLTCLVKGFYPSDIAVEWESSGQPENNYNTTPPMLDSDGSFFLYSKLTVDKSRWQQGNIFSCSVMHEALHNRFTQKSLSLSPGK
light: not shown
notes: Human IgG3
B4: PA27-G3 Ab (antibody, human IgG3, kappa)
heavy: QVQLVESGGGLVQPGGSLRLSCAASGFTFSKYGMSWVRQAPGKGLEWVSTISGSGFTTYYADSVKGRFTISRDDFKNTLYLQMNSLRAEDTAVYYCAKDGWDYEDFFGSWGQGTLVTVSSASTKGPSVFPLAPCSRSTSGGTAALGCLVKDYFPEPVTVSWNSGALTSGVHTFPAVLQSSGLYSLSSVVTVPSSSLGTQTYTCNVNHKPSNTKVDKRVELKTPLGDTTHTCPRCPEPKSCDTPPPCPRCPEPKSCDTPPPCPRCPEPKSCDTPPPCPRCPAPELLGGPSVFLFPPKPKDTLMISRTPEVTCVVVDVSHEDPEVQFKWYVDGVEVHNAKTKPREEQYNSTFRVVSVLTVLHQDWLNGKEYKCKVSNKALPAPIEKTISKTKGQPREPQVYTLPPSREEMTKNQVSLTCLVKGFYPSDIAVEWESSGQPENNYNTTPPMLDSDGSFFLYSKLTVDKSRWQQGNIFSCSVMHEALHNRFTQKSLSLSPGK
light: DIQMTQSPSSLSASVGDRVTITCRASQSISSYLNWYQQKPGKAPKLLIYAASSLQSGVPSRFSGSGSGTEFTLTITNLQPEDFGTYYCQQSYAFPYTFGQGTRLEIKRTVAAPSVFIFPPSDEQLKSGTASVVCLLNNFYPREAKVQWKVDNALQSGNSQESVTEQDSKDSTYSLSSTLTLSKADYEKHKVYACEVTHQGLSSPVTKSFNRGEC
notes: Human IgG3
B5: PA37-G3 Ab (antibody, human IgG3, kappa)
heavy: EVQLLESGGGLVQPGGSRRLSCATSGLSFSSYAMNWVRQAPGKGLEWVSAISGSGDITHYADSVKGRLTISRDNSKNTVYLQMNSLRGEDTAVYYCAKGPWLAPGGWFDPWGQGTLVTVSSASTKGPSVFPLAPCSRSTSGGTAALGCLVKDYFPEPVTVSWNSGALTSGVHTFPAVLQSSGLYSLSSVVTVPSSSLGTQTYTCNVNHKPSNTKVDKRVELKTPLGDTTHTCPRCPEPKSCDTPPPCPRCPEPKSCDTPPPCPRCPEPKSCDTPPPCPRCPAPELLGGPSVFLFPPKPKDTLMISRTPEVTCVVVDVSHEDPEVQFKWYVDGVEVHNAKTKPREEQYNSTFRVVSVLTVLHQDWLNGKEYKCKVSNKALPAPIEKTISKTKGQPREPQVYTLPPSREEMTKNQVSLTCLVKGFYPSDIAVEWESSGQPENNYNTTPPMLDSDGSFFLYSKLTVDKSRWQQGNIFSCSVMHEALHNRFTQKSLSLSPGK
light: not shown
notes: Human IgG3
B6: PA21-G3 Ab (antibody, human IgG3, kappa)
heavy: EVQLVESGGGVVQPGGSLRLSCAASGFTFSSYGMHWVRQAPGKGLEWVSGISGDAGSTYYADSVKGRFTISRDNSKNTLYLQMNSLRAEDMAVYYCARVMNYYGPGSAFDYWGQGTLVTVSSASTKGPSVFPLAPCSRSTSGGTAALGCLVKDYFPEPVTVSWNSGALTSGVHTFPAVLQSSGLYSLSSVVTVPSSSLGTQTYTCNVNHKPSNTKVDKRVELKTPLGDTTHTCPRCPEPKSCDTPPPCPRCPEPKSCDTPPPCPRCPEPKSCDTPPPCPRCPAPELLGGPSVFLFPPKPKDTLMISRTPEVTCVVVDVSHEDPEVQFKWYVDGVEVHNAKTKPREEQYNSTFRVVSVLTVLHQDWLNGKEYKCKVSNKALPAPIEKTISKTKGQPREPQVYTLPPSREEMTKNQVSLTCLVKGFYPSDIAVEWESSGQPENNYNTTPPMLDSDGSFFLYSKLTVDKSRWQQGNIFSCSVMHEALHNRFTQKSLSLSPGK
light: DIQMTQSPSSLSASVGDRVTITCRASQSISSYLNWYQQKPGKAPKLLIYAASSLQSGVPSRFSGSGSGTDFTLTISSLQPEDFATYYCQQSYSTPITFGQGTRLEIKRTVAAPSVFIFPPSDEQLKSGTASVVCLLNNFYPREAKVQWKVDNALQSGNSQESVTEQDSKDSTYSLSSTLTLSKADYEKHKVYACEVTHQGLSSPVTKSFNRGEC
notes: Human IgG3

A word on the Kd: it is a measure of binding affinity in units of concentration.

In this experiment the target is T1, Staphylococcus aureus protein A (SpA), commercial wildtype (Staphylococcus aureus, UniProt A0A0H3K686 37-477, limits assumed).
T1 construct: also called wildtype SpA; antigen
T1 sequence (A0A0H3K686 37-477 limits assumed): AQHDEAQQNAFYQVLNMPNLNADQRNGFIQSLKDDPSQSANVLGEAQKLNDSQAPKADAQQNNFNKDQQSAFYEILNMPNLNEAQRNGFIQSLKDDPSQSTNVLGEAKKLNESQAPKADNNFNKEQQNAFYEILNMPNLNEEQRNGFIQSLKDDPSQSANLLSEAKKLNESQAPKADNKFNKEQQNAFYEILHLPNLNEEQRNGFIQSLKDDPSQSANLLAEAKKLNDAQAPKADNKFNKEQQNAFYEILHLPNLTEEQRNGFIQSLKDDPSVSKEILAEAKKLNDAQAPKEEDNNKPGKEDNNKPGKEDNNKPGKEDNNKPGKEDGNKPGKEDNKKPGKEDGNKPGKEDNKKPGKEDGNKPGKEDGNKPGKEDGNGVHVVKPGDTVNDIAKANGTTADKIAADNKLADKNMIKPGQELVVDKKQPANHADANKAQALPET
In words: Bio-Layer Interferometry (ForteBio Octet Red 96), 20 nM antigen; BLI, 20 nM antigen.
Turning to B1, the equilibrium dissociation constant (Kd) was less than 1 pM. B2 yielded a Kd of less than 1 pM.

The molecule B3 had a Kd of less than 1 pM. B4 showed an equilibrium dissociation constant (Kd) of less than 1 pM. Take B5: the Kd is less than 1 pM.

B6 returned a Kd of less than 1 pM.
